± gives the standard error. Fewer inactive variants are shown than the library holds.

To fix the notation:
B1: glmS ribozyme (parent)
chain: AUAAAAGCGCCAGAACUACAGAAAUGUAGUUGACGAGGAGGAGGUUUAUCGAAUUUUCGGCGGAUGCCUCCAAA

Common to all, as to conditions: with glucosamine-6-phosphate
Data set [1] covers variants of B1. As to the kind of experiment: self-cleavage kobs at 40 uM GlcN6P; higher = faster cleavage; RNA array. In a few lines: (§1)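 Over ~14 h at 37 °C, tiles were imaged as glucosamine-6-phosphate (40 μM to 10 mM) in HEPES/KCl/Mg(OAc)2 buffer flowed across sequenced MiSeq chips. The chips carried barcoded ribozyme variants transcribed in situ by E. coli RNA polymerase and tracked with a hybridised Cy3 probe. After normalisation to baseline and to non-cleaving reference variants, one- or two-exponential decay fits of per-tile medians gave kobs. kcat and KM followed from weighted Michaelis–Menten fits across concentrations.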

The variants in data set [2] derive from B1. As to the kind of experiment: self-cleavage kobs at 160 uM GlcN6P; higher = faster cleavage; RNA array. In a few lines: as §1
In data set [3] the parent is B1. As to the kind of experiment: self-cleavage kobs at 640 uM GlcN6P; higher = faster cleavage; RNA array. In a few lines:
as §1

Variants of B1 are the subject of data set [4]. Description: self-cleavage kobs at 2500 uM GlcN6P; higher = faster cleavage; RNA array. A digest of the protocol:
as §1

In data set [5] the parent is B1. Description: self-cleavage kobs at 10000 uM GlcN6P; higher = faster cleavage; RNA array. In a few lines:
as §1

Consider U55G G63A, for which the “self-cleavage kobs at 40 uM GlcN6P” value in data set [1] was less than 1e-05 s⁻¹. Also, in data set [2], the “self-cleavage kobs at 160 uM GlcN6P” value was less than 1e-05 s⁻¹. In addition, the “self-cleavage kobs at 640 uM GlcN6P” value in data set [3] was less than 1e-05 s⁻¹. In addition, the “self-cleavage kobs at 2500 uM GlcN6P” value in data set [4] is less than 1e-05 s⁻¹. Also, the “self-cleavage kobs at 10000 uM GlcN6P” value in data set [5] was less than 1e-05 s⁻¹.
For C34U G63U, the “self-cleavage kobs at 40 uM GlcN6P” value in data set [1] is less than 1e-05 s⁻¹. The “self-cleavage kobs at 160 uM GlcN6P” value in data set [2] is less than 1e-05 s⁻¹. In data set [3], the “self-cleavage kobs at 640 uM GlcN6P” value was less than 1e-05 s⁻¹. The “self-cleavage kobs at 2500 uM GlcN6P” value in data set [4] is less than 1e-05 s⁻¹.
Take A42G G43C U45G A64U: in data set [1], the “self-cleavage kobs at 40 uM GlcN6P” value was less than 1e-05 s⁻¹. Moreover, the “self-cleavage kobs at 10000 uM GlcN6P” value in data set [5] was less than 1e-05 s⁻¹.
As to A36U G43C, the “self-cleavage kobs at 40 uM GlcN6P” value in data set [1] was less than 1e-05 s⁻¹. Besides, the “self-cleavage kobs at 160 uM GlcN6P” value in data set [2] was less than 1e-05 s⁻¹. Also, in data set [3], the “self-cleavage kobs at 640 uM GlcN6P” value is less than 1e-05 s⁻¹. For the same variant, in data set [4], the “self-cleavage kobs at 2500 uM GlcN6P” value is less than 1e-05 s⁻¹.
For the variant C34A C50G C68G, the “self-cleavage kobs at 40 uM GlcN6P” value in data set [1] was found to be 0.000116 ± 2.4e-05 s⁻¹. The “self-cleavage kobs at 10000 uM GlcN6P” value in data set [5] came out at 6.65e-05 ± 1.4e-05 s⁻¹.
Turning to A33C C34A, the “self-cleavage kobs at 40 uM GlcN6P” value in data set [1] is less than 1e-05 s⁻¹. Besides, the “self-cleavage kobs at 160 uM GlcN6P” value in data set [2] was less than 1e-05 s⁻¹. Also, the “self-cleavage kobs at 640 uM GlcN6P” value in data set [3] is less than 1e-05 s⁻¹. Also, the “self-cleavage kobs at 2500 uM GlcN6P” value in data set [4] is less than 1e-05 s⁻¹. In addition, the “self-cleavage kobs at 10000 uM GlcN6P” value in data set [5] was less than 1e-05 s⁻¹.
Take A36C G40U C67U: the “self-cleavage kobs at 40 uM GlcN6P” value in data set [1] was less than 1e-05 s⁻¹. The “self-cleavage kobs at 160 uM GlcN6P” value in data set [2] was less than 1e-05 s⁻¹. Besides, the “self-cleavage kobs at 640 uM GlcN6P” value in data set [3] was less than 1e-05 s⁻¹. The “self-cleavage kobs at 10000 uM GlcN6P” value in data set [5] is less than 1e-05 s⁻¹.
With G51U G60U, the “self-cleavage kobs at 40 uM GlcN6P” value in data set [1] is less than 1e-05 s⁻¹. Further, the “self-cleavage kobs at 160 uM GlcN6P” value in data set [2] is less than 1e-05 s⁻¹. Moreover, in data set [3], the “self-cleavage kobs at 640 uM GlcN6P” value is less than 1e-05 s⁻¹. In data set [4], the “self-cleavage kobs at 2500 uM GlcN6P” value was less than 1e-05 s⁻¹. In addition, the “self-cleavage kobs at 10000 uM GlcN6P” value in data set [5] is less than 1e-05 s⁻¹.
Regarding C11A C50G G62U, the “self-cleavage kobs at 40 uM GlcN6P” value in data set [1] turned out to be 0.000115 ± 2.8e-05 s⁻¹. In data set [5], the “self-cleavage kobs at 10000 uM GlcN6P” value was determined as 0.000116 ± 2.6e-05 s⁻¹.
Turning to G35C U46G, in data set [1], the “self-cleavage kobs at 40 uM GlcN6P” value is less than 1e-05 s⁻¹. Besides, the “self-cleavage kobs at 160 uM GlcN6P” value in data set [2] is less than 1e-05 s⁻¹. In addition, the “self-cleavage kobs at 640 uM GlcN6P” value in data set [3] was less than 1e-05 s⁻¹. Further, in data set [4], the “self-cleavage kobs at 2500 uM GlcN6P” value is less than 1e-05 s⁻¹. Further, the “self-cleavage kobs at 10000 uM GlcN6P” value in data set [5] was less than 1e-05 s⁻¹.
As to G35A U47G, in data set [1], the “self-cleavage kobs at 40 uM GlcN6P” value was less than 1e-05 s⁻¹. Also, the “self-cleavage kobs at 160 uM GlcN6P” value in data set [2] was less than 1e-05 s⁻¹. In addition, the “self-cleavage kobs at 640 uM GlcN6P” value in data set [3] is less than 1e-05 s⁻¹. Further, in data set [4], the “self-cleavage kobs at 2500 uM GlcN6P” value is less than 1e-05 s⁻¹. In addition, in data set [5], the “self-cleavage kobs at 10000 uM GlcN6P” value is less than 1e-05 s⁻¹.
For U31A C50U, in data set [1], the “self-cleavage kobs at 40 uM GlcN6P” value was less than 1e-05 s⁻¹. For the same variant, the “self-cleavage kobs at 160 uM GlcN6P” value in data set [2] is less than 1e-05 s⁻¹.
Regarding A36G G41A, the “self-cleavage kobs at 40 uM GlcN6P” value in data set [1] is less than 1e-05 s⁻¹. The “self-cleavage kobs at 160 uM GlcN6P” value in data set [2] is less than 1e-05 s⁻¹. Besides, the “self-cleavage kobs at 640 uM GlcN6P” value in data set [3] was less than 1e-05 s⁻¹. The “self-cleavage kobs at 2500 uM GlcN6P” value in data set [4] was less than 1e-05 s⁻¹. The “self-cleavage kobs at 10000 uM GlcN6P” value in data set [5] was less than 1e-05 s⁻¹.
Regarding A12G U30A A42G U54C, the “self-cleavage kobs at 40 uM GlcN6P” value in data set [1] was less than 1e-05 s⁻¹. Further, the “self-cleavage kobs at 10000 uM GlcN6P” value in data set [5] came to 6.88e-05 ± 2.4e-05 s⁻¹.
Regarding A6G G60U C68A, in data set [1], the “self-cleavage kobs at 40 uM GlcN6P” value is less than 1e-05 s⁻¹. Besides, in data set [3], the “self-cleavage kobs at 640 uM GlcN6P” value was less than 1e-05 s⁻¹. In addition, in data set [4], the “self-cleavage kobs at 2500 uM GlcN6P” value is less than 1e-05 s⁻¹. The “self-cleavage kobs at 10000 uM GlcN6P” value in data set [5] is less than 1e-05 s⁻¹.
In the case of A36U U47C, the “self-cleavage kobs at 40 uM GlcN6P” value in data set [1] is less than 1e-05 s⁻¹. Also, the “self-cleavage kobs at 160 uM GlcN6P” value in data set [2] was less than 1e-05 s⁻¹. For the same variant, in data set [3], the “self-cleavage kobs at 640 uM GlcN6P” value was less than 1e-05 s⁻¹. Moreover, the “self-cleavage kobs at 10000 uM GlcN6P” value in data set [5] is less than 1e-05 s⁻¹.
In the case of C8G G41U C61U, the “self-cleavage kobs at 40 uM GlcN6P” value in data set [1] was less than 1e-05 s⁻¹. For the same variant, the “self-cleavage kobs at 160 uM GlcN6P” value in data set [2] is less than 1e-05 s⁻¹. The “self-cleavage kobs at 10000 uM GlcN6P” value in data set [5] is less than 1e-05 s⁻¹.
Turning to A14C C50G A64G, the “self-cleavage kobs at 40 uM GlcN6P” value in data set [1] is 4.29e-05 ± 2.1e-05 s⁻¹.

For the origin of these results see the supplement of paper PMC7125110.
